Columns and labels:
[1] = target: Human insulin receptor subtype B (human) (UniProt P06213); test: cell-based or functional assay
[2] = target: Insulin receptor of C2C12 mouse myoblasts (mouse) (UniProt P15208); test: cell-based or functional assay
Insulin receptor of C2C12 mouse myoblasts (mouse), sequence (P15208 28-1372): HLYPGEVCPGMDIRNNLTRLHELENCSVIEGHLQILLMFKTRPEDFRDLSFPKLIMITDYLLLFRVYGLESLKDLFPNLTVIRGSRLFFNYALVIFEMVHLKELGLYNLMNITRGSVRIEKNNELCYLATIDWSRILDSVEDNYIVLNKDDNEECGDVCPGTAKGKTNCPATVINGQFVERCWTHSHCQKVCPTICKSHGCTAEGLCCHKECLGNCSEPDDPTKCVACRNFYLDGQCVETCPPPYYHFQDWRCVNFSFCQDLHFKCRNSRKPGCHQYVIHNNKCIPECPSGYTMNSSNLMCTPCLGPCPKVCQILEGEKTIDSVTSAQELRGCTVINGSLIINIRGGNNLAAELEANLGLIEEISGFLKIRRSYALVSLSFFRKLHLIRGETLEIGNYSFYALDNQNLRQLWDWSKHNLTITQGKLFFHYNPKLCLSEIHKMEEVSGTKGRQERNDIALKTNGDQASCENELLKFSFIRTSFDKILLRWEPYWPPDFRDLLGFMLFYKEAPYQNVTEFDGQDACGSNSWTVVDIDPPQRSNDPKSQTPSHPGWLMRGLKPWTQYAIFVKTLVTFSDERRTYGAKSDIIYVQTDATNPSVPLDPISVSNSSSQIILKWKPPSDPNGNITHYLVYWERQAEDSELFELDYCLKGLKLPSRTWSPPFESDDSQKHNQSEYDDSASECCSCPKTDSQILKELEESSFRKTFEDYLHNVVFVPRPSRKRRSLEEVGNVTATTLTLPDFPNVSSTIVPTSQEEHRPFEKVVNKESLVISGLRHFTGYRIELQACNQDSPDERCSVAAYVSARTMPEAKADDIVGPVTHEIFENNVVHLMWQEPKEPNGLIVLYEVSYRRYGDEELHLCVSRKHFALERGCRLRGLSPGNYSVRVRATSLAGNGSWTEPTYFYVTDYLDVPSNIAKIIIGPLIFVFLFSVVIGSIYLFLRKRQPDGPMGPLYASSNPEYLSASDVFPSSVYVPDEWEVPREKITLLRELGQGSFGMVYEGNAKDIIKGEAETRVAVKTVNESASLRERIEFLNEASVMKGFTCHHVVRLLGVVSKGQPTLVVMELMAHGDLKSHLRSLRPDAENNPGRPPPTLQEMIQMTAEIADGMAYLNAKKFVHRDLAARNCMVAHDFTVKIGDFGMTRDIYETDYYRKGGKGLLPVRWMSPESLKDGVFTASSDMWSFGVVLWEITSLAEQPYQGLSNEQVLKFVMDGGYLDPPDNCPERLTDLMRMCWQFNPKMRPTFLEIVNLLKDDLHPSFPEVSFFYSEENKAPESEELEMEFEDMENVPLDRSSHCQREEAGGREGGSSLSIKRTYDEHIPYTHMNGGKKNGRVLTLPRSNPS

Human insulin receptor subtype B activity (EC50) [1]: 116 nM | AKT phosphorylation activity (EC50) [2]: 194 nM
Substance: LY3209590 (Fc fusion)

From patent publication EP4782465A1
